Data: patent publication US20090298765A1 (Takeda / Millennium, published 2009)
Read-outs that look alike come from different tables or passages of the source. Non-standard residues stand in square brackets, D forms with d. No end group written: not given here. *: point of attachment. GuAmb = 4-guanidinomethylbenzoyl, N=C(N)NCc1ccc(C(=O)*)cc1; 2‑(indol-3-yl)ethylcarbamoyl = O=C(NCCc1c[nH]c2ccccc12)*; Propanoyl(3-indol-3-yl) = O=C(CCc1c[nH]c2ccccc12)*; Diphenylacetyl = O=C(C(c1ccccc1)c1ccccc1)*; indole‑3‑carbonyl = O=C(c1c[nH]c2ccccc12)*; indole‑3‑acetyl = O=C(Cc1c[nH]c2ccccc12)*; Phe(4-F) = N[C@@H](Cc1ccc(F)cc1)C(=O)O; Arg(Me) = CNC(=N)NCCC[C@H](N)C(=O)O; Arg(n-Pr) = n-propylated arginine; Hydrocinnamoyl = O=C(CCc1ccccc1)*; Orn = NCCC[C@H](N)C(=O)O; azaGly = NNC(=O)O

B1: [D-Tyr1,Ser4,Arg(Me)9]MS10 (peptide)
peptide: [dY]NWSSFGL[Arg(Me)]F-NH2
modifications: N-terminus assumed
SMILES: CNC(=N)NCCC[C@H](NC(=O)[C@H](CC(C)C)NC(=O)CNC(=O)[C@H](Cc1ccccc1)NC(=O)[C@H](CO)NC(=O)[C@H](CO)NC(=O)[C@H](Cc1c[nH]c2ccccc12)NC(=O)[C@H](CC(N)=O)NC(=O)[C@H](N)Cc1ccc(O)cc1)C(=O)N[C@@H](Cc1ccccc1)C(N)=O
B2: [Nar9]MS10 (peptide)
peptide: YNWNSFGLXF
modifications: Nar9; C-terminal amide
notes: also called Compound No. 310
B3: [Nar(Me)9]MS10 (peptide)
peptide: YNWNSFGLXF
modifications: Nar(Me)9; C-terminal amide
notes: also called Compound No. 311
B4: [6Ψ7,CH2NH,D-Tyr1,Arg(Me)9]MS10 (peptide)
peptide: [dY]NWNSFGL[Arg(Me)]F-NH2
modifications: also: bond 6-7 CONH replaced by CH2NH
notes: also called Compound No. 308
B5: des(1-3)-Indole-3-carbonyl-[AzaGly7,Arg(Me)9]MS10 (peptide)
peptide: {indole‑3‑carbonyl}-NSF[azaGly]L[Arg(Me)]F-NH2
notes: also called Compound No. 265
B6: des(1-3)-2-(Indol-3-yl)ethylcarbamoyl-[AzaGly7,Arg(Me)9]MS10 (peptide)
peptide: {2‑(indol-3-yl)ethylcarbamoyl}-NSF[azaGly]L[Arg(Me)]F-NH2
SMILES: CNC(=N)NCCC[C@H](NC(=O)[C@H](CC(C)C)NC(=O)NNC(=O)[C@H](Cc1ccccc1)NC(=O)[C@H](CO)NC(=O)[C@H](CC(N)=O)NC(=O)NCCc1c[nH]c2ccccc12)C(=O)N[C@@H](Cc1ccccc1)C(N)=O
notes: also called Compound No. 279
B7: [6Ψ7,CSNH,D-Tyr1,Arg(Me)9]MS10 (peptide)
peptide: [dY]NWNSFGL[Arg(Me)]F-NH2
modifications: also: bond 6-7 CONH replaced by CSNH (thioamide)
notes: also called Compound No. 296
B8: [D-Tyr1,Arg(n-Pr)9]MS10 (peptide)
peptide: [dY]NWNSFGL[Arg(n-Pr)]F-NH2
B9: des(1-3)-Indole-3-acetyl-[AzaGly7,Arg(Me)9]MS10 (peptide)
peptide: {indole‑3‑acetyl}-NSF[azaGly]L[Arg(Me)]F-NH2
SMILES: CNC(=N)NCCC[C@H](NC(=O)[C@H](CC(C)C)NC(=O)NNC(=O)[C@H](Cc1ccccc1)NC(=O)[C@H](CO)NC(=O)[C@H](CC(N)=O)NC(=O)Cc1c[nH]c2ccccc12)C(=O)N[C@@H](Cc1ccccc1)C(N)=O
notes: also called Compound No. 266
B10: des(1-3)-3-(3-Indolyl)propionyl-[AzaGly7,Arg(Me)9]MS10 (peptide)
peptide: {Propanoyl(3-indol-3-yl)}-NSF[azaGly]L[Arg(Me)]F-NH2
modifications: also: also named 1-(3-indolyl)propionyl cap
notes: also called Compound No. 260
B11: [Arg(Me)9]MS10 (peptide)
peptide: YNWNSFGL[Arg(Me)]F-NH2
notes: also called Compound No. 82
B12: des(1-5)-GuAmb-[AzaGly7,Arg(Me)9]MS10 (peptide)
peptide: GuAmb-F[azaGly]L[Arg(Me)]F-NH2
SMILES: CNC(=N)NCCC[C@H](NC(=O)[C@H](CC(C)C)NC(=O)NNC(=O)[C@H](Cc1ccccc1)NC(=O)c1ccc(CNC(=N)N)cc1)C(=O)N[C@@H](Cc1ccccc1)C(N)=O
B13: [D-Tyr1,AzaGly7,Arg(Me)9,Phe(4F)10]MS10 (peptide)
peptide: [dY]NWNSF[azaGly]L[Arg(Me)][Phe(4-F)]-NH2
notes: also called Compound No. 318
B14: [D-Tyr1,Gln4,Arg(Me)9]MS10 (peptide)
peptide: [dY]NWQSFGL[Arg(Me)]F-NH2
modifications: N-terminus assumed
SMILES: CNC(=N)NCCC[C@H](NC(=O)[C@H](CC(C)C)NC(=O)CNC(=O)[C@H](Cc1ccccc1)NC(=O)[C@H](CO)NC(=O)[C@H](CCC(N)=O)NC(=O)[C@H](Cc1c[nH]c2ccccc12)NC(=O)[C@H](CC(N)=O)NC(=O)[C@H](N)Cc1ccc(O)cc1)C(=O)N[C@@H](Cc1ccccc1)C(N)=O
B15: des(1)-[D-Tyr2,Ile3,AzaGly7,Arg(Me)9]MS10 (peptide)
peptide: [dY]INSF[azaGly]L[Arg(Me)]F-NH2
notes: also called Compound No. 240
B16: des(1)-[D-Tyr2,Ser3,AzaGly7,Arg(Me)9]MS10 (peptide)
peptide: [dY]SNSF[azaGly]L[Arg(Me)]F-NH2
notes: also called Compound No. 239
B17: des(1-3)-3-Phenylpropionyl-[AzaGly7,Arg(Me)9]MS10 (peptide)
peptide: Hydrocinnamoyl-NSF[azaGly]L[Arg(Me)]F-NH2
notes: also called Compound No. 269
B18: des(1-5)-GuAmb-[Arg(Me)9]MS10 (peptide)
peptide: GuAmb-FGL[Arg(Me)]F-NH2
SMILES: CNC(=N)NCCC[C@H](NC(=O)[C@H](CC(C)C)NC(=O)CNC(=O)[C@H](Cc1ccccc1)NC(=O)c1ccc(CNC(=N)N)cc1)C(=O)N[C@@H](Cc1ccccc1)C(N)=O
B19: des(1-3)-Diphenylacetyl-[AzaGly7,Arg(Me)9]MS10 (peptide)
peptide: Diphenylacetyl-NSF[azaGly]L[Arg(Me)]F-NH2
SMILES: CNC(=N)NCCC[C@H](NC(=O)[C@H](CC(C)C)NC(=O)NNC(=O)[C@H](Cc1ccccc1)NC(=O)[C@H](CO)NC(=O)[C@H](CC(N)=O)NC(=O)C(c1ccccc1)c1ccccc1)C(=O)N[C@@H](Cc1ccccc1)C(N)=O
notes: also called Compound No. 268
B20: [D-Tyr1,D-Asn2,AzaGly7,Arg(Me)9]MS10 (peptide)
peptide: [dY][dN]WNSF[azaGly]L[Arg(Me)]F-NH2
notes: also called Compound No. 237
B21: des(1-5)-3-(3-Indolyl)propionyl-[AzaGly7,Arg(Me)9]MS10 (peptide)
peptide: {Propanoyl(3-indol-3-yl)}-F[azaGly]L[Arg(Me)]F-NH2
SMILES: CNC(=N)NCCC[C@H](NC(=O)[C@H](CC(C)C)NC(=O)NNC(=O)[C@H](Cc1ccccc1)NC(=O)CCc1c[nH]c2ccccc12)C(=O)N[C@@H](Cc1ccccc1)C(N)=O
B22: [D-Tyr1,D-Asn2,Thr5,AzaGly7,Arg(Me)9]MS10 (peptide)
peptide: [dY][dN]WNTF[azaGly]L[Arg(Me)]F-NH2
modifications: N-terminus assumed
SMILES: CNC(=N)NCCC[C@H](NC(=O)[C@H](CC(C)C)NC(=O)NNC(=O)[C@H](Cc1ccccc1)NC(=O)[C@@H](NC(=O)[C@H](CC(N)=O)NC(=O)[C@H](Cc1c[nH]c2ccccc12)NC(=O)[C@@H](CC(N)=O)NC(=O)[C@H](N)Cc1ccc(O)cc1)[C@@H](C)O)C(=O)N[C@@H](Cc1ccccc1)C(N)=O
notes: also called Compound No. 298
B23: [D-Tyr1,Thr5,AzaGly7,Arg(Me)9]MS10 (peptide)
peptide: [dY]NWNTF[azaGly]L[Arg(Me)]F-NH2
modifications: N-terminus assumed
SMILES: CNC(=N)NCCC[C@H](NC(=O)[C@H](CC(C)C)NC(=O)NNC(=O)[C@H](Cc1ccccc1)NC(=O)[C@@H](NC(=O)[C@H](CC(N)=O)NC(=O)[C@H](Cc1c[nH]c2ccccc12)NC(=O)[C@H](CC(N)=O)NC(=O)[C@H](N)Cc1ccc(O)cc1)[C@@H](C)O)C(=O)N[C@@H](Cc1ccccc1)C(N)=O
notes: also called Compound No. 297
B24: [Orn9]MS10 (peptide)
peptide: YNWNSFGL[Orn]F-NH2
modifications: N-terminus assumed
SMILES: CC(C)C[C@H](NC(=O)CNC(=O)[C@H](Cc1ccccc1)NC(=O)[C@H](CO)NC(=O)[C@H](CC(N)=O)NC(=O)[C@H](Cc1c[nH]c2ccccc12)NC(=O)[C@H](CC(N)=O)NC(=O)[C@@H](N)Cc1ccc(O)cc1)C(=O)N[C@@H](CCCN)C(=O)N[C@@H](Cc1ccccc1)C(N)=O
notes: also called Compound No. 314
B25: [6Ψ7,NHCO,D-Tyr1,Arg(Me)9]MS10 (peptide)
peptide: [dY]NWNSFGL[Arg(Me)]F-NH2
modifications: also: bond 6-7 CONH replaced by NHCO (reversed)

How the values were obtained:
[1] = molecular target: T1, human OT7T175 (metastin receptor) (human, UniProt Q969F8 1-398); experiment: cell-based or functional assay
T1 sequence (Q969F8 whole entry L364H): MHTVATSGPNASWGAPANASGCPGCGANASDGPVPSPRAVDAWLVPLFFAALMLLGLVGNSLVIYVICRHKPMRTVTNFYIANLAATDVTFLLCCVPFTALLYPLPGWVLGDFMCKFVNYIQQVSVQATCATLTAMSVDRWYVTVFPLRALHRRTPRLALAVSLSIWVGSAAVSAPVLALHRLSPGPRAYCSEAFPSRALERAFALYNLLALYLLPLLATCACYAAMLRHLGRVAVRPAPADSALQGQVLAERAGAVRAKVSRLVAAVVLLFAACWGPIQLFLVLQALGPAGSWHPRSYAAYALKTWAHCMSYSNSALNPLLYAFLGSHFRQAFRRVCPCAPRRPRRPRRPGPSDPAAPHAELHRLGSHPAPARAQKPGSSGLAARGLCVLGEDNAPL

[2] = molecular target: T1, human OT7T175 (metastin receptor); experiment: cell-based or functional assay; remark: listed apart in the source
[3] = molecular target: T1, human OT7T175 (metastin receptor); experiment: competition with Cy-5 metastin (40-54) on hOT7T175-CHO cells, FMAT
Method: hOT7T175-Expressed CHO cells were cultured in MEM-α medium (nucleic acid-free) containing 10% dialyzed serum. The medium was removed and the adhered cells were washed with PBS. Then, PBS containing 5 mM EDTA was added and the cells were scraped from a flask with a cell scraper.
To each well of a 96-Well Black Clear Bottom Microplate (Applied Biosystems, Inc.), 10 μL of assay buffer containing 1% dimethylsulfoxide was added to examine total binding, 10 μL of 10 μM non-labeled peptide (having the same amino acid sequence as that of labeled one) solution diluted with assay buffer to examine non-specific binding, and 10 μL of a test compound diluted with assay buffer to examine a binding inhibition activity of the test compound, and furthermore, 90 μL each of the cell suspension was dispensed to each well. […] Specific binding is calculated as non-specific binding subtracted from total binding. The binding inhibition activity of a test compound is shown by a ratio of the value obtained by subtracting a measured value in presence of a test compound from the total binding to the specific binding.

[4] = molecular target: T1, human OT7T175 (metastin receptor); experiment: cell-based or functional assay; remark: listed apart in the source

Row | Binder | Ca ion level-increasing activity (FLIPR) [1] | Ca ion level-increasing activity (FLIPR) [2] | IC50 [3] [µM] | Ca ion level-increasing activity (FLIPR, 40 s) [4] [EC50/MS10 EC50]
1 | B1 | 0.5 x Metastin (1-54) | – | – | –
2 | B2 | – | 3 x Metastin (1-54) | 0.31 | 2
3 | B3 | – | 1 x Metastin (1-54) | 0.47 | 6.2
4 | B4 | – | – | 0.35 | 2.6
5 | B5 | – | 3 x Metastin (1-54) | 0.095 | 4.4
6 | B6 | – | 5 x Metastin (1-54) | 0.029 | 6.4
7 | B7 | – | 3 x Metastin (1-54) | 0.014 | 5.2
8 | B8 | 0.5 x Metastin (1-54) | – | – | –
9 | B9 | – | 2 x Metastin (1-54) | 0.23 | 5.4
10 | B10 | – | 5 x Metastin (1-54) | 0.32 | 4.3
11 | B11 | – | – | 0.0041 | 1
12 | B12 | – | 2 x Metastin (1-54) | – | 4.9
13 | B13 | – | – | 0.00099 | 2.9
14 | B14 | 0.5 x Metastin (1-54) | – | – | –
15 | B15 | – | – | 0.017 | 4.9
16 | B16 | – | – | 0.12 | 6.7
17 | B17 | – | 3 x Metastin (1-54) | 0.47 | 3.4
18 | B18 | – | 1 x Metastin (1-54) | – | 5
19 | B19 | – | 1 x Metastin (1-54) | 0.55 | 4.5
20 | B20 | 3 x Metastin (1-54) | – | 0.027 | –
21 | B21 | – | 2 x Metastin (1-54) | – | 5.9
22 | B22 | – | 5 x Metastin (1-54) | 0.00025 | 1.8
23 | B23 | – | 1 x Metastin (1-54) | 0.00093 | 5.5
24 | B24 | – | 1 x Metastin (1-54) | 0.47 | 4.4
25 | B25 | – | 3 x Metastin (1-54) | – | 3.1
